Patent publication US12329806B2, “Compound for modulating rlr, tlr, oas and/or oncostatin m pathways, use thereof for preparing a medicine, composition, method for modulating said pathways and method of treatment” (Instituto Butantan, priority 2018, dated 2025)

Test system: Equine melanoma tumors
Test: RNA-Seq transcriptomic analysis (DEGs, EdgeR) of treated equine melanoma tumors excised 6 h and 12 h after injection
Format: in vivo, Equus caballus
Conditions: for SELE expression, average / SELE expression, median: RNA-Seq
Method: Equine melanoma tumors were used in experiments with the administration of the compound of the invention, for transcriptomic analysis at different points in time. This translational experiment was carried out at Sao Joaquim Farm (SP) and the samples were transported to the Instituto Butantan, in the city of Sao Paulo. The experiment was designed with non-treated control samples at 0 h (PBS) and the treated tumors were excised 6 h and 12 h after the injection of 1 mg of polypeptide per kg of tumor. For each time point, two tumors were removed from three different animals, producing six tumors per time point. All 18 cDNA libraries were prepared following Illumina's TruSeq® RNA Preparation Kit Kits v2 protocol, and then sequenced using HiSeq 1500 Illumina technology, generating 2×100 bp chain-specific paired readings. The raw sequencing readings had the contaminants removed with bowtie2 2.2.5, and then trimmomatic was used for quality control of the sequences, to cut and remove readings with regions of low complexity and enriched with homopolymers, poly-A/T/N tails, low quality adapter strings and bases, with the fastq-mcf 1.04.662 software. The readings were filtered if more than 90% of the readings correspond to regions of homopolymer or of low complexity. Subsequently, cut if the average quality score was less than 25 in a window size equal to 15. After cutting, all readings less than 40 bp were discarded.
Total RNA was isolated from cells grown with Trizol (Ambion, Life Technologies) and purified with a Mini RNAspin kit (GE Healthcare) according to the manufacturer's instructions, with prolonged treatment with DNase I for 1 h.
RNA quality was assessed with an Agilent 2100 Bioanalyzer RNA Pico assay. RNA was quantified using the Rib-Green Quant-iT and RNA reagent kit (Invitrogen, Life Technologies). The messenger RNA (mRNA) was isolated and used to prepare the complementary DNA (cDNA) libraries following the instructions of the TruSeq RNA Sample Prep Kit V2 (Illumina, San Diego, Calif.). Briefly, the mRNA was isolated with oligo-dT and purified. Then, the mRNA was fragmented by heating to 94° C. (4 min) in fragmentation buffer. The double-stranded cDNA was synthesized, repaired at the end and tail A. The sequencing adapters were then attached to the cDNA fragments, according to the manufacturer's protocol. The cDNA fragments were enriched after 15 rounds of PCR amplification. The quality control of the library was assessed by size distribution of the cDNA libraries measured using 2100 Bioanalyzer with DNA1000 assay (Agilent Technologies) and a StepOnePlus real-time PCR system from ABI were used to quantify the sample library before sequencing. The cDNA library was sequenced on the Illumina HiSeq 1500 System, in a final flow cell paired with Rapid in a 200 pair strategy of 2-101 bp pairing strategy.
The in-silico analysis of RNA-Seq comprises several quality steps and transcriptomic quantification algorithms that are understood in the present invention as “pipeline”. (FIG. 19). The quality check was performed using FastQC3. Hisat214 was used to align readings against the horse's reference genome (Equus caballus) (annotation version 89). To map and quantify transcriptions, the feature Counts was used, resulting in a table of genetic IDs versus samples with raw reading counts. Then, differentially expressed genes (DEGs) were calculated using the EdgeR package. Genes with less than one count per million (CPM) were filtered out. The DEGs were calculated by crossing the sample values of a) 6 h after treatment (6 h)×control (0 h); b) 12 h after treatment (12 h)×control; and also, c) 12 h×6 h. DEGs are defined as an absolute value of log 2 fold change between two groups (LFC)>1 and false discovery rate (FDR)<0.05. […]

[1] = RNA-seq median expression, 12 h

B1: Amblyomin-X: recombinant Kunitz type protein identified in a cDNA library of Amblyomma sculptum tick salivary glands (protein)
chain: MRQLAVLALVIFTGMCVESQSANSKAVCNLPKLAGDETCSNKTEIRWYYNGTACEAFIFKGCGGNDNNFDRVDDCQRLCEEQTHFHFESPKLICFKVQDYWILNDIMKKNLTGISLKSEEEDADSGEID
modifications: Amblyomin-X
notes: recombinant Kunitz type protein identified in a cDNA library of Amblyomma sculptum tick salivary glands
- SELE expression, average (6 h after treatment): 7.15 CPM
- SELE expression, median (6 h after treatment): 4.56 CPM
- SELE expression, average (12 h after treatment): 4.85 CPM
- SELE expression, median (12 h after treatment): 5.63 CPM
- median2, gene ACTN1 (RNA-seq median expression, 6 h): 153.3001 CPM
- median2, gene BCL3 (RNA-seq median expression, 6 h): 46.57 CPM
- median2, gene BIRC3 (RNA-seq median expression, 6 h): 47.3192 CPM
- median2, gene CAD (RNA-seq median expression, 6 h): 52.82 CPM
- median2, gene CCL2 (RNA-seq median expression, 6 h): 171.527 CPM
- median2, gene CDO1 (RNA-seq median expression, 6 h): 22.45 CPM
- median2, gene CTSL (RNA-seq median expression, 6 h): 34.0817 CPM
- median2, gene CXCL6 (RNA-seq median expression, 6 h): 6.189 CPM
- median2, gene DDX58 (RNA-seq median expression, 6 h): 22.55 CPM
- median2, gene F12 (RNA-seq median expression, 6 h): 4.891 CPM
- median2, gene FOSL1 (RNA-seq median expression, 6 h): 14.18 CPM
- median2, gene FSCN1 (RNA-seq median expression, 6 h): 97.19 CPM
- median2, gene HMOX1 (RNA-seq median expression, 6 h): 99.11 CPM
- median2, gene HSPA6 (RNA-seq median expression, 6 h): 15.93 CPM
- median2, gene IFI35 (RNA-seq median expression, 6 h): 48.07 CPM
- median2, gene IFIH1 (RNA-seq median expression, 6 h): 13.29 CPM
- median2, gene IFIT1 (RNA-seq median expression, 6 h): 28.13 CPM
- median2, gene IL1B (RNA-seq median expression, 6 h): 20.23 CPM
- median2, gene IL1RN (RNA-seq median expression, 6 h): 120.3935 CPM
- median2, gene IL13RA1 (RNA-seq median expression, 6 h): 29.3 CPM
- median2, gene IRF9 (RNA-seq median expression, 6 h): 72.39 CPM
- median2, gene ITGA1 (RNA-seq median expression, 6 h): 7.06 CPM
- median2, gene MYH1 (RNA-seq median expression, 6 h): 0 CPM
- median2, gene MYH3 (RNA-seq median expression, 6 h): 1.418 CPM
- median2, gene MYL2 (RNA-seq median expression, 6 h): 0 CPM
- median2, gene MYLPF (RNA-seq median expression, 6 h): 1.314 CPM
- median2, gene NTNG1 (RNA-seq median expression, 6 h): 1.059 CPM
- median2, gene OAS2 (RNA-seq median expression, 6 h): 34.26 CPM
- median2, gene PARP9 (RNA-seq median expression, 6 h): 16.34 CPM
- median2, gene PER1 (RNA-seq median expression, 6 h): 32.08 CPM
- median2, gene PIK3R6 (RNA-seq median expression, 6 h): 5.162 CPM
- median2, gene RUNX1 (RNA-seq median expression, 6 h): 8.949 CPM
- median2, gene SAA1 (RNA-seq median expression, 6 h): 7.68 CPM
- median2, gene SELP (RNA-seq median expression, 6 h): 22.34 CPM
- median2, gene SLPI (RNA-seq median expression, 6 h): 230.2294 CPM
- median2, gene SOCS3 (RNA-seq median expression, 6 h): 12.21 CPM
- median2, gene STAT1 (RNA-seq median expression, 6 h): 76.48 CPM
- median2, gene TAT (RNA-seq median expression, 6 h): 1.235 CPM
- median2, gene TEAD4 (RNA-seq median expression, 6 h): 21.64 CPM
- median2, gene THBS1 (RNA-seq median expression, 6 h): 43.5 CPM
- median2, gene TLR2 (RNA-seq median expression, 6 h): 59.58 CPM
- median2, gene TREM1 (RNA-seq median expression, 6 h): 31.36 CPM
- median3, gene ACTN1 [1]: 165.3412 CPM
- median3, gene BCL3 [1]: 39.97 CPM
- median3, gene BIRC3 [1]: 47.38 CPM
- median3, gene CAD [1]: 50.34 CPM
- median3, gene CCL2 [1]: 418.8519 CPM
- median3, gene CDO1 [1]: 12.71 CPM
- median3, gene CTSL [1]: 33.8889 CPM
- median3, gene CXCL6 [1]: 1.108 CPM
- median3, gene DDX58 [1]: 31.9 CPM
- median3, gene F12 [1]: 8.671 CPM
- median3, gene FOSL1 [1]: 11.46 CPM
- median3, gene FSCN1 [1]: 152.3466 CPM
- median3, gene HMOX1 [1]: 105.6427 CPM
- median3, gene HSPA6 [1]: 53.79 CPM
- median3, gene IFI35 [1]: 66.19 CPM
- median3, gene IFIH1 [1]: 27.95 CPM
- median3, gene IFIT1 [1]: 34.11 CPM
- median3, gene IL1B [1]: 10.07 CPM
- median3, gene IL1RN [1]: 118.3058 CPM
- median3, gene IL13RA1 [1]: 23.98 CPM
- median3, gene IRF9 [1]: 85.24 CPM
- median3, gene ITGA1 [1]: 6.155 CPM
- median3, gene MYH1 [1]: 0 CPM
- median3, gene MYH3 [1]: 1.817 CPM
- median3, gene MYL2 [1]: 0 CPM
- median3, gene MYLPF [1]: 1.629 CPM
- median3, gene NTNG1 [1]: 0.744 CPM
- median3, gene OAS2 [1]: 82.84 CPM
- median3, gene PARP9 [1]: 18.56 CPM
- median3, gene PER1 [1]: 39.99 CPM
- median3, gene PIK3R6 [1]: 4.433 CPM
- median3, gene RUNX1 [1]: 9.266 CPM
- median3, gene SAA1 [1]: 11.7 CPM
- median3, gene SELP [1]: 20.58 CPM
- median3, gene SLPI [1]: 620.7695 CPM
- median3, gene SOCS3 [1]: 11.57 CPM
- median3, gene STAT1 [1]: 83.64 CPM
- median3, gene TAT [1]: 9.52 CPM
- median3, gene TEAD4 [1]: 39.12 CPM
- median3, gene THBS1 [1]: 31.32 CPM
- median3, gene TLR2 [1]: 93.64 CPM
- median3, gene TREM1 [1]: 24.25 CPM
- logFC6, gene ACTN1 (RNA-seq, 6 h after treatment): 1.003
- logFC6, gene BCL3 (RNA-seq, 6 h after treatment): 1.936
- logFC6, gene BIRC3 (RNA-seq, 6 h after treatment): 1.275
- logFC6, gene CAD (RNA-seq, 6 h after treatment): 1.227
- logFC6, gene CCL2 (RNA-seq, 6 h after treatment): 2.79
- logFC6, gene CDO1 (RNA-seq, 6 h after treatment): −1.785
- logFC6, gene CTSL (RNA-seq, 6 h after treatment): 1.376
- logFC6, gene CXCL6 (RNA-seq, 6 h after treatment): 5.945
- logFC6, gene DDX58 (RNA-seq, 6 h after treatment): 1.434
- logFC6, gene F12 (RNA-seq, 6 h after treatment): 2.559
- logFC6, gene FOSL1 (RNA-seq, 6 h after treatment): 4.578
- logFC6, gene FSCN1 (RNA-seq, 6 h after treatment): 1.457
- logFC6, gene HMOX1 (RNA-seq, 6 h after treatment): 1.443
- logFC6, gene HSPA6 (RNA-seq, 6 h after treatment): 5.376
- logFC6, gene IFI35 (RNA-seq, 6 h after treatment): 1.513
